Test results taken from patent publication US20260216242A1 (ALMAC DISCOVERY, published 2026).

Legend:
human ALPP on CHO cells [1] = molecular target: T1, human ALPP on CHO cells (human, UniProt P05187 23-506); assay: flow cytometry, CHO cells, KDapp
T1 construct: whole, on cells; also called CHO-ALPP
Method: (§1) Cell surface binding of test agents to hALPP isoforms was characterized in four CHO-ALPP isoform stably transfected cell lines (CHO-ALPP, CHO-ALPPL2, CHO-ALPI and CHO-ALPL) and the resulting KDapp values determined. Adherent cells were detached from tissue culture flasks by incubating with 0.1% EDTA/PBS solution at 37° C. for ~10 minutes or until cells detached easily. Cells were re-suspended in ice-cold PBS/2% FCS in 15 ml tubes and centrifuged at 1700 rpm for 5 mins at 4° C. Supernatant was removed and the cell pellet re-suspended in PBS/2% FCS. […] Cells were incubated with 100 μl of test agents at a range of concentrations, plus controls for 1 hr on ice. The sample plate was centrifuged at 1700 rpm for 5 mins at 4° C. The supernatant was removed, and a wash performed by re-suspending the cell pellets in 0.25 mL of ice-cold PBS/2% FCS using a multichannel pipette. Samples were again centrifuged at 1700 rpm for 5 min at 4° C. Supernatant was removed and two further washes performed as described. After the final wash and centrifugation step, excess liquid was removed by blotting the plate on tissue paper. Binding of VHH (His6 tagged) agents was determined by adding 100 μl of anti-x6His tag Ab (Abcam) per cell pellet sample as appropriate and incubating on ice for 30 mins. Wash steps were performed as described previously. Fitc-anti-mouse antibody (ThermoFisher) was used to detect binding of the VHH (His6 tagged) agents by incubating with the appropriate samples for 30 min on ice in the dark. Wash steps were performed as described previously. All cell pellets were finally re-suspended in […] of ice-cold PBS/2% FCS and left on ice in the dark prior to analysis on a Merck-Millipore Guava EasyCyte HT or Thermo Fisher Attune N×T flow cytometer.

[2] = molecular target: T2, human ALPPL2 on CHO cells (human, UniProt P10696 20-503); assay: flow cytometry, CHO cells, KDapp
T2 construct: whole, on cells; also called CHO-ALPPL2
Method: as §1

human ALPP on CHO cells [3] = molecular target: T1, human ALPP on CHO cells; assay: flow cytometry, CHO cells stably expressing human ALPP; His6-tagged VHH detected with anti-His tag Ab and FITC anti-mouse Ab
Method: (§2) C-terminal His tagged VHH proteins were assessed for ALPP, ALPPL2, ALPI and ALPL cell-surface binding by flow cytometry. Binders encompassing different epitope bins were screened on CHO cells stably expressing ALPP, ALPPL2, ALPI or ALPL. High levels of cell-surface proteins expression were confirmed for each of the cell-lines by flow cytometry.
(§3) Cell surface binding of test agents to hALPP isoforms was characterized in four CHO-ALPP isoform stably transfected cell lines (CHO-ALPP, CHO-ALPPL2, CHO-ALPI and CHO-ALPL) and the resulting KDapp values determined. Adherent cells were detached from tissue culture flasks by incubating with 0.1% EDTA/PBS solution at 37° C. for ~10 minutes or until cells detached easily. Cells were re-suspended in ice-cold PBS/2% FCS in 15 ml tubes and centrifuged at 1700 rpm for 5 mins at 4° C. Supernatant was removed and the cell pellet re-suspended in PBS/2% FCS. […] Cells were incubated with 100 μl of test agents at a range of concentrations, plus controls for 1 hr on ice. The sample plate was centrifuged at 1700 rpm for 5 mins at 4° C. The supernatant was removed, and a wash performed by re-suspending the cell pellets in 0.25 mL of ice-cold PBS/2% FCS using a multichannel pipette. […] Binding of VHH (His6 tagged) agents was determined by adding 100 μl of anti-x6His tag Ab (Abcam) per cell pellet sample as appropriate and incubating on ice for 30 mins. […]

[4] = molecular target: T3, Human ALPP (leucine zipper) (human); assay: BLI, antigen immobilised
T3 construct: Whole entry: ALPP fused with a cysteine stabilised leucine zipper and His tag; also called hALPP
T3 chain: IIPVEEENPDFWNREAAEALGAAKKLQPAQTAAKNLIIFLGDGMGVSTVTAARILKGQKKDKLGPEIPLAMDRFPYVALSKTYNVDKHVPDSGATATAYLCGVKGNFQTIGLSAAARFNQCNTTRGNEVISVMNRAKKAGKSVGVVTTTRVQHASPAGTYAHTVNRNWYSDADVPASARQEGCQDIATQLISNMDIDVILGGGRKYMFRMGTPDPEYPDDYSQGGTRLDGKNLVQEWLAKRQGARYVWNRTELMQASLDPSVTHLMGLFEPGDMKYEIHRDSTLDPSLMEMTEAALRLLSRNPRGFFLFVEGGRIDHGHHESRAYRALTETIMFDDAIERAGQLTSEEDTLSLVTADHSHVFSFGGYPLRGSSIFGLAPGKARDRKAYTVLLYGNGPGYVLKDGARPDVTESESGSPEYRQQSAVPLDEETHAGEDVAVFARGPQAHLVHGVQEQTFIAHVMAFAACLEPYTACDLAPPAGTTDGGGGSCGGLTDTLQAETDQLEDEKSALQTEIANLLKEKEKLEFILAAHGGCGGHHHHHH
Method: (§4) Binding kinetics were determined using the Biolayer Interferometry (BLI) Octet K2 system (Sartorius). […] All assays were conducted in PBS with a plate temperature of 25° C. Ka (M⁻¹s⁻¹), Kd (s⁻¹) and KD (nM) values were determined using Octet Data Analysis High Throughput software (ForteBio) for Biolayer Interferometry.

[5] = molecular target: T4, Human ALPPL2 (leucine zipper) (human); assay: BLI, antigen immobilised
T4 construct: Whole entry: fused with a cysteine stabilised leucine zipper and His tag; also called hALPPL2
T4 chain: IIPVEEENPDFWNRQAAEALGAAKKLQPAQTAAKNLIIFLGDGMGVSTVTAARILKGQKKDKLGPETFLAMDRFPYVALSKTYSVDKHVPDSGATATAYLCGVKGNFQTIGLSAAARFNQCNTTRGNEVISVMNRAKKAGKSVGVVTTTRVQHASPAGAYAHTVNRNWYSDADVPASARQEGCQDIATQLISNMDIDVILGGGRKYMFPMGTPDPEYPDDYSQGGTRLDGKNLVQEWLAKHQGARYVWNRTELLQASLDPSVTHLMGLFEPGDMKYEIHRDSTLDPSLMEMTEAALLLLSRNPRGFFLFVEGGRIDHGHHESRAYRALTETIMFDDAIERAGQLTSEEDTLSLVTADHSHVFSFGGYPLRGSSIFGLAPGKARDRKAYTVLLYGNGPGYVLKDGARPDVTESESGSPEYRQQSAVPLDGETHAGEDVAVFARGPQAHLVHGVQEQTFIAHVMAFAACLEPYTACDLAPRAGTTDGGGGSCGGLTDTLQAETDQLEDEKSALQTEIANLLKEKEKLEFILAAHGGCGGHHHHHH
Method: as §4

[6] = molecular target: T2, human ALPPL2 on CHO cells; assay: flow cytometry, CHO cells stably expressing human ALPPL2; His6-tagged VHH detected with anti-His tag Ab and FITC anti-mouse Ab
Method: as §2, §3

[7] = molecular target: T5, human ALPPL2 (alkaline phosphatase, germ cell type) expressed on the surface of CHO cells (human, UniProt P10696 20-503); assay: cell-based or functional assay
[8] = molecular target: T6, human ALPI (intestinal alkaline phosphatase) expressed on the surface of CHO cells (human, UniProt P09923 20-503); assay: cell-based or functional assay
T6 sequence (looked up): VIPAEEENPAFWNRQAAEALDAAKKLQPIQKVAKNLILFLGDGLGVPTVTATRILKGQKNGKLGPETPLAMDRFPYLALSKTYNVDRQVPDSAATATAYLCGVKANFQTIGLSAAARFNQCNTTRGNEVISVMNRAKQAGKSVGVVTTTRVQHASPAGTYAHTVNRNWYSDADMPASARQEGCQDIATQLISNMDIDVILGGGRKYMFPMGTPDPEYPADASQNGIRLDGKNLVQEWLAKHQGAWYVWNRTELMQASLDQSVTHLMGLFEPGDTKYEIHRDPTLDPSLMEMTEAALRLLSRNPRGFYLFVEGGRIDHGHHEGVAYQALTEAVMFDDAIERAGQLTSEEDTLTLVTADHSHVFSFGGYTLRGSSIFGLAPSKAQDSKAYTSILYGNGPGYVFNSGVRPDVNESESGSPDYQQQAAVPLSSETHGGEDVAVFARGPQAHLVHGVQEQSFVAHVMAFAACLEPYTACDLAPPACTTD

[9] = molecular target: T7, human ALPL (tissue non-specific alkaline phosphatase) expressed on the surface of CHO cells (human, UniProt P05186 18-501); assay: cell-based or functional assay
T7 sequence (looked up): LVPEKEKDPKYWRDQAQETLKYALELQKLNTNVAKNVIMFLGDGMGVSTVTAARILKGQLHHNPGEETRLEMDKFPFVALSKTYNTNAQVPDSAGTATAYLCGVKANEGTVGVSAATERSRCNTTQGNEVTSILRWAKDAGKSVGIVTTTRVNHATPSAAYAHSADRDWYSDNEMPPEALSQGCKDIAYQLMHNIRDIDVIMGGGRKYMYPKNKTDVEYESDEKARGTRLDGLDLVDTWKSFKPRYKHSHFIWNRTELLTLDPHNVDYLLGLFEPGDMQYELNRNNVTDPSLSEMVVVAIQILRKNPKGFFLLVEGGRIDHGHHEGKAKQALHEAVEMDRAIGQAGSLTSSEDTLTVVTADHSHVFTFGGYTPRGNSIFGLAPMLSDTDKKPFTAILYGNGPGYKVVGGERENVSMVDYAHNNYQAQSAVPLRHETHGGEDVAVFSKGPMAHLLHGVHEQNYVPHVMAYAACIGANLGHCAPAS

[10] = molecular target: T8, human ALPP (alkaline phosphatase, placental type) expressed on the surface of CHO cells (human, UniProt P05187 23-506); assay: cell-based or functional assay
[11] = molecular target: T7, human ALPL (tissue non-specific …); assay: flow cytometry, CHO-ALPL cells
[12] = molecular target: T5, human ALPPL2 (alkaline phosphatase, …); assay: flow cytometry on CHO-ALPPL2 cells, apparent KD (KDapp)
Method in brief: (§5)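 Cell-surface binding to CHO cells stably transfected with human ALPP, ALPPL2, ALPI or ALPL; cells detached with 0.1% EDTA/PBS, incubated with biparatopic VHH-hFc drug conjugates over a concentration range for 1 hr on ice. Bound agent detected with FITC anti-human Ab (30 min, ice, dark) by flow cytometry; KDapp derived from binding.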

[13] = molecular target: T8, human ALPP (alkaline phosphatase, …); assay: flow cytometry on CHO-ALPP cells, apparent KD (KDapp)
Method in brief: as §5

[14] = molecular target: T6, human ALPI (intestinal alkaline …); assay: flow cytometry, CHO-ALPI cells

| Binder | Kd (human ALPP on CHO cells [1]) | Kd [2] | EC50 (read off the curve) (human ALPP on CHO cells [3]) | Kd [4] | koff [4] | kon [4] | Kd [5] | koff [5] | kon [5] | EC50 (read off the curve) [6] | IC50 at 96 h, cell-killing of CHO-ALPPL2 cells [7] | IC50 at 96 h, cell-killing of CHO-ALPI cells [8] | IC50 at 96 h, cell-killing of CHO-ALPL cells [9] | IC50 at 96 h, cell-killing of CHO-ALPP cells [10] | binding result [11] | Kd [12] | Kd [13] | binding result [14] |
| --- | --- | --- | --- | --- | --- | --- | --- | --- | --- | --- | --- | --- | --- | --- | --- | --- | --- | --- |
| B01 His (VHH, not shown: small tags and cut ends) VHH: QVQLVESGGGLVQAGGSLRLSCEVTRSPMPIDTMAWYRQAPGRQRELVAIISRSGSTNYADSVKGRFTISRNDTKSTMYKSTMYLKMNTLELEDTGVYYCNAVGLWNGAEYWGQGTQVTVSS | 5.3 nM | 5 nM | ~5 nM | 1.18 nM | 0.000191 s⁻¹ | 162000 M⁻¹ s⁻¹ | 0.29 nM | 0.00014 s⁻¹ | 482000 M⁻¹ s⁻¹ | ~5 nM |  |  |  |  |  |  |  |  |
| D10 E06-hFc (S239/442C T366Y/Y407T), [G4S]3 linker, MC-vc-PAB-MMAE conjugate, #634 (Fc fusion, DAR 4, MC-vc-PAB-MMAE on Cys of S239C and S442C (EU numbering), Biparatopic knob-into-hole VHH-hFc heterodimer, DAR 4; also called D10-E06 hFc-vcPAB-MMAE; D10-E06 hFc-vc-MMAE) chain 1: QVQLVESGGGLVQPGGSLRLSCAASGSIFSVNTMGWYRQAPGKQRDLVAVATSGGTIHYADSVKGRFTISRDNAKNTVYLQMNSLKPEDTAVYYCNLVVPYGMIAGDHDYWGQGTKVTVSSGGGGSGGGGSGGGGSEPKSSDKTHTCPPCPAPELLGGPCVFLFPPKPKDTLMISRTPEVTCVVVDVSHEDPEVKFNWYVDGVEVHNAKTKPREEQYNSTYRVVSVLTVLHQDWLNGKEYKCKVSNKALPAPIEKTISKAKGQPREPQVYTLPPSRDELTKNQVSLYCLVKGFYPSDIAVEWESNGQPENNYKTTPPVLDSDGSFFLYSKLTVDKSRWQQGNVFSCSVMHEALHNHYTQKSLCLSPGK chain 2: QVHLVESGGGLVQAGGSLRLSCAASRRSFSEYAMGWFRQAPGKEREFVAAIGWSGVIEYADSVKGRFTISRDNAKDTVYLQMNSLKPEDTAVYYCAAGLGIRVVSQTPAYWGQGTQVTVSSGGGGSGGGGSGGGGSEPKSSDKTHTCPPCPAPELLGGPCVFLFPPKPKDTLMISRTPEVTCVVVDVSHEDPEVKFNWYVDGVEVHNAKTKPREEQYNSTYRVVSVLTVLHQDWLNGKEYKCKVSNKALPAPIEKTISKAKGQPREPQVYTLPPSRDELTKNQVSLTCLVKGFYPSDIAVEWESNGQPENNYKTTPPVLDSDGSFFLTSKLTVDKSRWQQGNVFSCSVMHEALHNHYTQKSLCLSPGK |  |  |  |  |  |  |  |  |  |  | 9.1 nM | > 1000 nM | > 1000 nM | 9.2 nM | no binding (tested: 350 nM (highest concentration)) | 5.9 nM | 8.3 nM | no binding (tested: 350 nM (highest concentration)) |
